# Experimental data taken from US20250026813A1.
# Target: SARS-CoV-2 spike trimer protein (wild type), in the envelope of lentiviral pseudovirus particles (SARS-CoV-2) (UniProt P0DTC2)
# Assay: cell-based or functional assay
substance,measurement,value
4A8 (antibody),Fold change relative to SAD S35 antibody,5.44 fold
